Data from patent publication US20250320312A1 (OXITOPE PHARMA B V, published 2025).

T1: Peptide 4: Biotin-AGGGGSGGGGSGGGGSAAA-Tyr-acid (N-terminal biotin; C-terminal acid; no PC)
T1 construct: control peptide without PC
T1 peptide: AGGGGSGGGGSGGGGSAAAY

T2: Peptide 8: Biotin-AEAAAKEAAAKEAAAKEAAAKAAA-Tyr-acid (N-terminal biotin; C-terminal acid; no PC)
T2 construct: control peptide without PC
T2 peptide: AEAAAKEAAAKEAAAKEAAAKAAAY


How the values were obtained:
PC-BSA = assay: ELISA (DELFIA TRF), PC-BSA coated, titrated IgG1
BSA = BSA (UniProt P02769); assay: scFv ELISA
[1] = molecular target: Peptide 5: Biotin-…-[Tyr(PC)]-acid; assay: scFv ELISA
[2] = molecular target: Peptide 1: Biotin-…-[Tyr(PC)]-acid; assay: scFv ELISA
[3] = molecular target: T1, Peptide 4: …; assay: scFv ELISA
Summary of the method: (§1)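 Bound scFv was read as OD450 after HRP–anti-V5 detection, TMB development and HCl stop. PPE with BSA was incubated 1 h at RT on BSA-blocked wells coated overnight at 4° C. with peptide, or on streptavidin wells loaded 1 h with biotinylated PC-peptides at 1 μg/mL.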

[4] = molecular target: T2, Peptide 8: …; assay: scFv ELISA
Summary of the method: as §1

Sequence of BSA (P02769 25-607 limits assumed): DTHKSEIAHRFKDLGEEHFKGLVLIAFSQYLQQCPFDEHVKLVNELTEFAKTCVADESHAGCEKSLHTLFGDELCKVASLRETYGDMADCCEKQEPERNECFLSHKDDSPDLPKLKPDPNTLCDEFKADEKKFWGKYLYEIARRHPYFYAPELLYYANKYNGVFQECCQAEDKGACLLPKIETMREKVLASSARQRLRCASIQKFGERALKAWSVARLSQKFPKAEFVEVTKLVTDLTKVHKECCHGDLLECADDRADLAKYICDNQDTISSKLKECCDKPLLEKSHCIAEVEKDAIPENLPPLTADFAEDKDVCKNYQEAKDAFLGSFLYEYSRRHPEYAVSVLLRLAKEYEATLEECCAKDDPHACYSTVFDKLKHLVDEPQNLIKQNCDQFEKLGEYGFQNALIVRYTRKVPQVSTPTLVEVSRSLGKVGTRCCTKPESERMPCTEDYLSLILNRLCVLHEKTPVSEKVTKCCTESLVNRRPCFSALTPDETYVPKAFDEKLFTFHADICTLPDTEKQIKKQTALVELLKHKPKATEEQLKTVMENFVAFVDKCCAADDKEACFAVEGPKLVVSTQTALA
Sequence of PC-BSA (P02769 25-607 limits assumed, form in doubt): as the sequence (P02769 25-607 limits assumed) above

Molecule	EC50 (PC-BSA) [pM]	OD450 (BSA) [OD450]	OD450 [1] [OD450]	OD450 [2] [OD450]	OD450 [3] [OD450]	OD450 [4] [OD450]
E06 parental IgG1 (antibody)	390					
PcOxP_DB02_A05 (scFv, V domains shown, scFv in periplasmic extract) VH: EVQLLESGGGLVQPGGSLRLSCAASGFTGSDFYMEWVRQAPGKGLEWVAASRNKWNDYTTEYADSVKGRFTISRDNSKNTLYLQMNSLRAEDTAVYYCARDYYGSSYWYFDVWGQGTLVTVSS VL: DIVMTQSPDSLAVSLGERATINCTASESLYSSKHKVHYLAWYQQKPGQPPKLLIYGAGNRYIGVPDRFSGSGSGTDFTLTISSLQAEDVAVYYCAQFYSYPLTFGGGTKVEIK		0.07	1.24	0.99	0.05	0.04
PcOxP_DB02_C12 (scFv, V domains shown, scFv in periplasmic extract) VH: EVQLLESGGGLVQPGGSLRLSCAASGFTFSDHYMEWVRQAPGKGLEWVAASRNKANDYTTEYADSVKGRFTISRDNSKNTLYLQMNSLRAEDTAVYYCARDYYGSSYWYFDVWGQGTLVTVSS VL: DIVMTQSPDSLAVSLGERATINCTASESLYSSKHKVHYLAWYQQKPGQPPKLLIYGAHNRYIGVPDRFSGSGSGTDFTLTISSLQAEDVAVYYCANFYSYPLTFGGGTKVEIK		0.07	1.58	0.97	0.04	0.04
PcOxP_DB02_B04 (scFv, V domains shown, scFv in periplasmic extract) VH: EVQLLESGGGLVQPGGSLRLSCAASGFTFSDYYMEWVRQAPGKGLEWVAASRNKWNDYTTEYADSVKGRFTISRDNSKNTLYLQMNSLRAEDTAVYYCARDYYGSSYWYFDVWGQGTLVTVSS VL: DIVMTQSPDSLAVSLGERATINCTASESLYSSKHKVHYLAWYQQKPGQPPKLLIYGASNRYIGVPDRFSGSGSGTDFTLTISSLQAEDVAVYYCAQFYSYPLTFGGGTKVEIK		0.08	1.32	0.75	0.05	0.04
PcOxP_DB02_C05 (scFv, V domains shown, scFv in periplasmic extract) VH: EVQLLESGGGLVQPGGSLRLSCAASGFTASDFYMEWVRQAPGKGLEWVAASRNKANDYTTEYADSVKGRFTISRDNSKNTLYLQMNSLRAEDTAVYYCARDYYGSSYWYFDVWGQGTLVTVSS VL: DIVMTQSPDSLAVSLGERATINCTASESLYSSKHKVHYLAWYQQKPGQPPKLLIYGASNRYIGVPDRFSGSGSGTDFTLTISSLQAEDVAVYYCAQFYSYPLTFGGGTKVEIK		0.06	0.92	0.64	0.04	0.04
PcOxP_DB02_C04 (scFv, V domains shown, scFv in periplasmic extract) VH: EVQLLESGGGLVQPGGSLRLSCAASGQTFSDFYMEWVRQAPGKGLEWVAASRNKANGYTTEYTDSVKGRFTISRDNSKNTLYLQMNSLRAEDTAVYYCARDYYGSSYWYFDVWGQGTLVTVSS VL: DIVMTQSPDSLAVSLGERATINCTASESLYSSKHKVHYLAWYQQKPGQPPKLLIYGANNRYIGVPDRFSGSGSGTDFTLTISSLQAEDVAVYYCAQFYSYPLTFGGGTKVEIK		0.08	0.75	0.37	0.05	0.05
PcOxP_DB02_C10 (scFv, V domains shown, scFv in periplasmic extract) VH: EVQLLESGGGLVQPGGSLRLSCAASGFTFSDYYMEWVRQAPGKGLEWVAASRNKANDYTTEYADSVKGRFTISRDNSKNTLYLQMNSLRAEDTAVYYCARDYYGSSYWYFDVWGQGTLVTVSS VL: DIVMTQSPDSLAVSLGERATINCTASESLYSSKHKVHYLAWYQQKPGQPPKLLIYGASNRYIGVPDRFSGSGSGTDFTLTISSLQAEDVAVYYCAQFYEYPLTFGGGTKVEIK		0.06	0.92	0.44	0.04	0.04
PcOxP_DB02_C03 (scFv, V domains shown, scFv in periplasmic extract) VH: EVQLLESGGGLVQPGGSLRLSCAASGFTFSDYYMEWVRQAPGKGLEWVAASRWKANDYTTEYADSVKGRFTISRDNSKNTLYLQMNSLRAEDTAVYYCARDYYGSSYWYFDVWGQGTLVTVSS VL: DIVMTQSPDSLAVSLGERATINCTASESLYSSKHKVHYLAWYQQKPGQPPKLLIYGASNRYIGVPDRFSGSGSGTDFTLTISSLQAEDVAVYYCAQFYVYPLTFGGGTKVEIK		0.1	0.61	0.54	0.05	0.05
PcOxP_DB02_B07 (scFv, V domains shown, scFv in periplasmic extract) VH: EVQLLESGGGLVQPGGSLRLSCAASGFTFSDQYMEWVRQAPGKGLEWVAASRNNANDYTTEYADSVKGRFTISRDNSKNTLYLQMNSLRAEDTAVYYCARDYYGSSYWYFDVWGQGTLVTVSS VL: DIVMTQSPDSLAVSLGERATINCTASESLYSSKHKVHYLAWYQQKPGQPPKLLIYGASNRQIGVPDRFSGSGSGTDFTLTISSLQAEDVAVYYCAQFYHYPLTFGGGTKVEIK		0.06	0.77	0.4	0.04	0.04
PcOxP_DB02_C08 (scFv, V domains shown, scFv in periplasmic extract) VH: EVQLLESGGGLVQPGGSLRLSCAASGFTFSDPYMEWVRQAPGKGLEWVAASRNKANDYTTEYADSVKGRFTISRDNSKNTLYLQMNSLRAEDTAVYYCARDYYGSPYWYFDVWGQGTLVTVSS VL: DIVMTQSPDSLAVSLGERATINCGASESLYSSKSKVHYLAWYQQKPGQPPKLLIYGASNRYIGVPDRFSGSGSGTDFTLTISSLQAEDVAVYYCAQFYSYPLTFGGGTKVEIK		0.06	0.39	0.22	0.06	0.04

The remaining lines, values ahead:

EC50 (PC-BSA) [pM]	OD450 (BSA) [OD450]	OD450 [1] [OD450]	OD450 [2] [OD450]	OD450 [3] [OD450]	OD450 [4] [OD450]	Molecule
	0.05	0.27	0.16	0.04	0.04	PcOxP_DB02_D02 (scFv, V domains shown, scFv in periplasmic extract) VH: EVQLLESGGGLVQPGGSLRLSCAASGFTFSDYYMEWVRQAPGKGLEWVAASRNKANDYTTEYADSVKGRFTISRDNSKNTLYLQMNSLRAEDTAVYYCARDYYGSSYWYFDTWGQGTLVTVSS VL: DIVMTQSPDSLAVSLGERATINCTSSESVYSSSHKVHYLAWYQQKPGQPPKLLIYGASNRYIGVPDRFSGSGSGTDFTLTISSLQAEDVAVYYCAQFYYYPLTFGGGTKVEIK
	0.06	0.34	0.09	0.04	0.05	PcOxP_DB02_E02 (scFv, V domains shown, scFv in periplasmic extract) VH: EVQLLESGGGLVQPGGSLRLSCAASGFTFSDEYMEWVRQAPGKGLEWVAASRNSGNSYTTAYADSVKGRFTISRDNSKNTLYLQMNSLRAEDTAVYYCARDYYGSSYWYFDVWGQGTLVTVSS VL: DIVMTQSPDSLAVSLGERATINCTASESLYSSKHKVHYLAWYQQKPGQPPKLLIYGASNRYIGVPDRFSGSGSGTDFTLTISSLQAEDVAVYYCAQFYSYPLTFGGGTKVEIK
	0.08	0.71	0.42	0.04	0.04	PcOxP_DB02_D03 (scFv, V domains shown, scFv in periplasmic extract) VH: EVQLLESGGGLVQPGGSLRLSCAASGFTQSDFYMEWVRQAPGKGLEWVAASRNKANAYTTEYADSVKGRFTISRDNSKNTLYLQMNSLRAEDTAVYYCARDYYGYSYWYFDVWGQGTLVTVSS VL: DIVMTQSPDSLAVSLGERATINCTASESLYSSKHKVHYLAWYQQKPGQPPKLLIYGNSNRYIGVPDRFSGSGSGTDFTLTISSLQAEDVAVYYCGQFYSYPLTFGGGTKVEIK
	0.06	0.76	0.23	0.04	0.04	PcOxP_DB02_E11 (scFv, V domains shown, scFv in periplasmic extract) VH: EVQLLESGGGLVQPGGSLRLSCAASGFTFSDQYMEWVRQAPGKGLEWVAASRNKANDYTVEYADSVKGRFTISRDNSKNTLYLQMNSLRAEDTAVYYCARDYYGSSYWYFDVWGQGTLVTVSS VL: DIVMTQSPDSLAVSLGERATINCKSSESLLYSKNNKNYLAWYQQKPGQPPKLLIYGASNRYSGVPDRFSGSGSGTDFTLTISSLQAEDVAVYYCAQFYSYPLTFGGGTKVEIK
	0.08	0.75	0.39	0.04	0.05	PcOxP_DB02_E03 (scFv, V domains shown, scFv in periplasmic extract) VH: EVQLLESGGGLVQPGGSLRLSCAASGFTFSDYYMEWVRQAPGKGLEWVAASRWKANDYTTEYADSVKGRFTISRDNSKNTLYLQMNSLRAEDTAVYYCARDYYGSSQWYFDVWGQGTLVTVSS VL: DIVMTQSPDSLAVSLGERATINCTASESLYSSKHKKNYLAWYQQKPGQPPKLLIYGASWRYIGVPDRFSGSGSGTDFTLTISSLQAEDVAVYYCAQFYSYPLTFGGGTKVEIK
	0.07	0.74	0.56	0.04	0.04	PcOxP_DB02_E09 (scFv, V domains shown, scFv in periplasmic extract) VH: EVQLLESGGGLVQPGGSLRLSCAASGFTFSDYYMEWVRQAPGKGLEWVAASRWKANDYTTEYADSVKGRFTISRDNSKNTLYLQMNSLRAEDTAVYYCARDYYGSSYWYFDVWGQGTLVTVSS VL: DIVMTQSPDSLAVSLGERATINCTASESLYSSKHKVHYLAWYQQKPGQPPKLLIYGASTRYSGVPDRFSGSGSGTDFTLTISSLQAEDVAVYYCAQFYTYPLTFGGGTKVEIK
	0.07	0.49	0.24	0.04	0.04	PcOxP_DB02_E08 (scFv, V domains shown, scFv in periplasmic extract) VH: EVQLLESGGGLVQPGGSLRLSCAASGFTFSDDYMEWVRQAPGKGLEWVAATRNKANDYTTEYADSVKGRFTISRDNSKNTLYLQMNSLRAEDTAVYYCARDYYGSSYWYFDSWGQGTLVTVSS VL: DIVMTQSPDSLAVSLGERATINCTASESLYSSKHKVHYLAWYQQKPGQPPKLLIYGASNRYIGVPDRFSGSGSGTDFTLTISSLQAEDVAVYYCAQFYSYPLTFGGGTKVEIK
